Numbering of substitutions follows the chain as printed.

Consider twelve molecules from patent publication US20140051645A1 (Pieris, published 2014).

The target in experiment [1] is T1, human CTLA-4 on transfected CHO-K1 cells (human, UniProt P16410 36-223).
T1 construct: whole, on cells; also called human CTLA4-transfected CHO cells; CTLA-4 expressing CHO cells
T1 sequence (looked up): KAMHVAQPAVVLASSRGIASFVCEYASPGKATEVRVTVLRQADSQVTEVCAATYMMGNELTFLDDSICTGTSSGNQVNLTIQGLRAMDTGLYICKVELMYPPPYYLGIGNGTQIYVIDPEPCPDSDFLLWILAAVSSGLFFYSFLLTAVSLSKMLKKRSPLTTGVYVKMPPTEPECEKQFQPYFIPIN
Description: competition FACS on human CTLA4-transfected CHO-K1 cells; blocked ligand: biotinylated human B7.1 at 10 nM, detected with streptavidin-phycoerythrin.

Experiment [2] addresses T2, murine CTLA4-Fc (R&D Systems) (mouse, UniProt P09793 36-162, limits assumed).
T2 construct: Bought fusion protein; also called mouse CTLA4; not shown: It was captured by an anti-human IgG-Fc antibody
As to the kind of experiment: SPR, Biacore T100, 25 C; CTLA4-Fc captured on anti-human IgG-Fc, mutein as analyte; 1:1 Langmuir fit. The method, then:
(§1) Real time affinity analysis was performed at 25° C. using a Biacore T100 system (GE Healthcare). Anti-human IgG-Fc antibody (Jackson ImmounoResearch Laboratories) was immobilized on a CM5 sensor chip using standard amine coupling chemistry, resulting in a ligand density of 8000 resonance units (RU). […] Subsequently, the Lcn2 muteins (SEQ ID: No 12 to SEQ ID NO: 17) were applied in an appropriate dilution series in HBS-EP at a flow rate of 30 μl/min. Regeneration of the derivatized chip surface was achieved by a combination of first basic (2.5 mM NaOH) and then acidic (10 mM glycine, pH 1.5) buffer, each for 8 and 16 s, respectively. […] To correct for buffer effects and baseline drift, double referencing was used throughout. Kinetic data evaluation was performed using the Biacore T100 Evaluation Software (v. 2.0.1) using the Langmuir 1:1 binding model and global fitting.
In general terms: SPR reads the build-up and loss of mass on a sensor chip optically.

The target of experiment [3] is T3, human CTLA-4-Fc (Chimerigen) (human, UniProt P16410 36-161, limits assumed).
T3 construct: Bought fusion protein; also called hCTLA4-Fc; not shown: It was captured by an anti-human IgG-Fc antibody
T3 sequence (looked up): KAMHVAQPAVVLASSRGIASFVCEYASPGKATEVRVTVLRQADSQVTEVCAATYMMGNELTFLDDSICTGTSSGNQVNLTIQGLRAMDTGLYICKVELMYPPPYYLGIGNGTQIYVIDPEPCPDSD
The experiment is described as above. The method, then:
as §1

In experiment [4] the target is T1, human CTLA-4 on transfected CHO-K1 cells. Description: competition FACS on human CTLA4-transfected CHO-K1 cells; competitor biotinylated human B7.1 at 10 nM. The method, then:
Different concentrations of the Lcn2 muteins or, as a positive control, of the antibody BNI3 (BD Bioscience) were mixed with recombinant biotinylated human B7.1 (Ancell) at 10 nM final concentration and added to 100 000 of the CTLA-4 transfected CHO-K1 cells which were generated according to the description in example 16 of PCT/EP 2005/012640. Samples were incubated at 4° C. for 2 h, washed twice in PBS containing 2% w/v BSA, and detection of bound B7.1 was accomplished by incubation with streptavidin-phycoerythrin for 30 min at 4° C. Mean fluorescence intensities were determined by flow cytometry and fitted to a sigmoidal dose response model using Prism (GraphPad) as depicted in FIG. 4 to determine EC50 values for Lcn2 muteins from sequences of SEQ ID NO: 12 to SEQ ID NO: 17 which are summarized in Table 3.

In experiment [5] the target is T3, human CTLA-4-Fc (Chimerigen). As to the kind of experiment: screening ELISA of crude lysates: mutein captured by T7 mAb, limited soluble human CTLA4-Fc; in some cases competition ELISA with mAb BNI3. The method, then:
Therein, NGAL variants equipped with a T7 detection tag (Novagen) as well as a Strep-tag II affinity tag (IBA) were soluble expressed in a 96 well microtiter plate using the E. coli strain TG1/F with phNGAL37 SEQ ID NO: 10. This vector corresponds to phNGAL15 SEQ ID NO: 11 as described in the following example 4 with an N-terminal T7 tag consisting of 11 amino acids ([…]). Lipocalin mutein expression was induced overnight at 22° C. at 700 rpm with anhydrotetracycline (0.2 μg/ml) at an OD₅₅₀ of 0.6. Afterwards, cells were lysed (100 mM Na-borate, pH 8.0, 80 mM NaCl, 1 mM EDTA, 0.025% w/v lysozyme) for 1 h under agitation. To minimize non-specific binding in the subsequent ELISA screen, the crude cell lysates were supplemented with 2% w/v BSA and 0.1% v/v Tween 20 and tested in ELISA for binding to human CTLA-4-Fc (Chimerigen).
In a reverse ELISA approach soluble expressed muteins from the crude cell lysate were captured via immobilized T7 mAb (5 μg/ml, Novagen) on wells of black Fluotrac 600 ELISA plates (Greiner; 384 well). Neutravidin, 5 μg/ml, and 3% milk were used as negative control. […] Subsequently plates were washed five times and bound target was detected via an goat anti-human Fc monoclonal antibody-HRP conjugate (Jackson ImmunoResearch), diluted 1:5.000 in PBST/0.1. Therefore, QuantaBlu™ (Pierce; 1:2 diluted in PBS/T 0.1%) was used as fluorogenic HRP substrate. After 45 min of signal development at room temperature fluorescence was excited at a wavelength of 320 nm (±12.5 nm) and measured at 430 nm (±17.5 nm) in a GENiosPlus plate reader (Tecan).
In some cases a competition ELISA was carried out where CTLA4-Fc (2.5 μg/ml) was captured in ELISA plates via an immobilized mouse anti-human IgG Fc Gamma fragment-specific antibody (Jackson ImmunoResearch (5 μg/ml) and incubated for 1 h with a pre-mixture of the mutein extracts and different concentrations of a competitive CTLA4-specific mAb BNI3 (BD Bioscience) at concentrations of 30, 100, and 200 nM, respectively.
Background: ELISA stands for enzyme-linked immunosorbent assay.

Consider BNI3 (antibody), for which, in experiment [1], the IC50 (read off the curve) was 3 nM.

B1: hNGALM4 (designed binder)
chain: QDSTSDLIPAPPLSKVPLQQNFQDNQFHGKWYVVGLAGNRILRDDQHPMPMYATIYELKGDKSYNVTSVISSHKKCLYPIATFVPGSQPGEFTLGNIKSYGDKWSYLVRVVSTDYNQYAVVFFKHADSNYESFSITIYGRTKELASELKENFIRFSKSLGLPENHIVFPVPIDQCIDG
As to B1, in experiment [2], the dissociation constant Kd came to 0.584 nM, the off-rate (koff) was found to be 0.000129 s⁻¹ and the kon came to 221000 M⁻¹ s⁻¹. Also, in experiment [3], the dissociation constant Kd stood at 0.346 nM, the koff is 0.000186 s⁻¹ and the on-rate constant (kon) stood at 539000 M⁻¹ s⁻¹. In experiment [4], this molecule showed a concentration for a half-maximal effect (EC50) of 9.5 nM.

B2: hNGALM3 (designed binder)
chain: QDSTSDLIPAPPLSKVPLQQNFQDNQFHGKWYVVGLAGNRILRQDQHPMLMYATIYELKGDKSYNVTSVISSHKKCLYPIATFVPGSQPGEFTLGNIKSYGDKVSYLVRVVSTDYNQYAVVFFKHADTNYESFSITIYGRTKELASELKENFIRFSKSLGLPENHIVFPVPIDQCIDGSAWSHPQFEK
Turning to B2, in experiment [2], the equilibrium dissociation constant (Kd) was 0.672 nM, the dissociation rate constant (koff) was 0.000134 s⁻¹ and the kon stood at 199000 M⁻¹ s⁻¹. In experiment [3], the Kd was determined as 0.46 nM, the off-rate (koff) came out at 0.000194 s⁻¹ and the on-rate constant (kon) turned out to be 422000 M⁻¹ s⁻¹. The molecule also yielded an EC50 in experiment [4] of 7.6 nM.

B3: hNGALM7 (designed binder)
chain: B2 chain with Q44L, L50P, K98R, V104T
Turning to B3, in experiment [2], the dissociation constant Kd was determined as 0.413 nM, the off-rate (koff) worked out at 0.000108 s⁻¹ and the kon came out at 261000 M⁻¹ s⁻¹. For the same molecule, in experiment [3], the dissociation constant (Kd) was 0.659 nM, the dissociation rate constant (koff) was 0.000517 s⁻¹ and the kon amounted to 784000 M⁻¹ s⁻¹. This molecule also returned a half-maximal effective concentration (EC50) in experiment [4] of 11 nM.

B4: hNGALM2 (designed binder)
chain: B2 chain with I41L, Q44D, L50D, V104W
For B4, in experiment [2], the equilibrium dissociation constant (Kd) was found to be 3.05 nM, the off-rate constant (koff) amounted to 0.000907 s⁻¹ and the kon turned out to be 298000 M⁻¹ s⁻¹. Further, in experiment [3], the equilibrium dissociation constant (Kd) came to 0.686 nM, the koff came out at 0.000388 s⁻¹ and the on-rate (kon) stood at 565000 M⁻¹ s⁻¹. The molecule further gave an EC50 in experiment [4] of 6 nM.

B5: hNGALM6 (designed binder)
chain: B2 chain with Q44S, L50P, P79S, V104E, H125Y, D127S, T128D, Y130D
With B5, in experiment [2], the dissociation constant (Kd) turned out to be 66.1 nM, the off-rate constant (koff) is 4.21 s⁻¹ and the kon was 6.36e+07 M⁻¹ s⁻¹. Further, in experiment [3], the equilibrium dissociation constant (Kd) was determined as 0.588 nM, the koff came out at 0.000197 s⁻¹ and the kon is 335000 M⁻¹ s⁻¹. Besides, the EC50 in experiment [4] worked out at 10.3 nM.

B6: hNGALM5 (designed binder)
chain: B2 chain with Q44S, L50R, P79T, V104W
For B6, in experiment [2], the dissociation constant (Kd) came to 0.32 nM, the koff is 0.000261 s⁻¹ and the kon stood at 813000 M⁻¹ s⁻¹. Moreover, in experiment [3], the Kd worked out at 0.74 nM, the koff was 0.000281 s⁻¹ and the association rate constant (kon) was 380000 M⁻¹ s⁻¹. The same molecule registered a half-maximal effective concentration (EC50) in experiment [4] of 9 nM.

B7: SEQ ID NO 14 (designed binder)
chain: MASMTGGQQMGQDSTSDLIPAPPLSKVPLQQNFQDNQFHGKWYVVGLAGNRILRDDQHPMPMYATIYELKGDKSYNVTSVISSHKKCLYPIATFVPGSQPGEFTLGNIKSYGDKWSYLVRVVSTDYNQYAVVFFKHADSNYESFSITIYGRTKELASELKENFIRFSKSLGLPENHIVFPVPIDQCIDG
notes: Screening construct in crude E. coli lysate, with T7 tag, mutein and Strep-tag II
Turning to B7, the binding result in experiment [5] is reported as “binds”.

B8: SEQ ID NO 16 (designed binder)
chain: B7 chain with D55S, P90S, W115E, H136Y, D138S, S139D, Y141D
notes: as for B7
Regarding B8, in experiment [5], the binding result is “binds”.

B9: SEQ ID NO 15 (designed binder)
chain: B7 chain with D55S, P61R, P90T, S139T
notes: as for B7
For the molecule B9, the binding result in experiment [5] is given as “binds”.

B10: SEQ ID NO 13 (designed binder)
chain: B7 chain with D55Q, P61L, W115V, S139T
notes: as for B7
For the molecule B10, the binding result in experiment [5] was “binds”.

B11: SEQ ID NO 17 (designed binder)
chain: B7 chain with D55L, K109R, W115T, S139T
notes: as for B7
As for B11, in experiment [5], the binding result was “binds”.

What is called Kd is the constant that tells how readily two partners part at equilibrium. A word on the koff: it is the rate constant with which the complex falls apart. For orientation: kon means a measure of how fast the partners come together. A word on the EC50: it is the concentration giving half of the maximal effect.
